Consider 7 molecules from patent publication US20250171562A1 (ALK ABELL, published 2025).

B1: NIgG4B1A2(RS) (Fc fusion)
chain 1: QVQLQESGGGLVQTGGSLRLSCAVHGRTFSNTGMGWFRQAPGNERQFVAIISPSGTSTYYADSVKGRFTISRDPAKNTVYLQMNSLKMDDTAVYYCAASYGSNWSTLRHQRRNEYDAWGQGTQVAVSRSGPPCPPCPAPEFLGGPSVFLFPPKPKDTLMISRTPEVTCVVVDVSQEDPEVQFNWYVDGVEVHNAKTKPREEQFNSTYRVVSVLTVLHQDWLNGKEYKCKVSNKGLPSSIEKTISKAKGQPREPQVYTLPPCQEEMTKNQVSLWCLVKGFYPSDIAVEWESNGQPENNYKTTPPVLDSDGSFFLYSRLTVDKSRWQEGNVFSCSVMHEALHNHYTQKSLSLSLGK
chain 2: EVQLLESGGGLVQPGGSLRLSCAASGFRFGNYDMAWVRQAPGKRYEWVSSIDTGGDITHYADSVKGRFTISRDNAKNTLYLQMNSLRPEDTAEYWCATDEEYALGPNEFDYYGQGTLVTVSRSGPPCPPCPAPEFLGGPSVFLFPPKPKDTLMISRTPEVTCVVVDVSQEDPEVQFNWYVDGVEVHNAKTKPREEQFNSTYRVVSVLTVLHQDWLNGKEYKCKVSNKGLPSSIEKTISKAKGQPREPQVCTLPPSQEEMTKNQVSLSCAVKGFYPSDIAVEWESNGQPENNYKTTPPVLDSDGSFFLVSRLTVDKSRWQEGNVFSCSVMHEALHNHYTQKSLSLSLGK
B2: CIgE4A1A1(GS)2 (Fc fusion)
chain 1: GPPCPPCPAPEFLGGPSVFLFPPKPKDTLMISRTPEVTCVVVDVSQEDPEVQFNWYVDGVEVHNAKTKPREEQFNSTYRVVSVLTVLHQDWLNGKEYKCKVSNKGLPSSIEKTISKAKGQPREPQVYTLPPCQEEMTKNQVSLWCLVKGFYPSDIAVEWESNGQPENNYKTTPPVLDSDGSFFLYSRLTVDKSRWQEGNVFSCSVMHEALHNHYTQKSLSLSLGKGGGGSGGGGSEVQLLESGGGLVQPGGSLRLSCAASGFTFGNYDMAWVRQAPGKRPEWVSSIDTGGDITHYADSVKGRFTISRDNAKNTLYLQMNSLRPEDTAVYWCATDEEYALGPNEFDYYGQGTLVTVSS
chain 2: GPPCPPCPAPEFLGGPSVFLFPPKPKDTLMISRTPEVTCVVVDVSQEDPEVQFNWYVDGVEVHNAKTKPREEQFNSTYRVVSVLTVLHQDWLNGKEYKCKVSNKGLPSSIEKTISKAKGQPREPQVCTLPPSQEEMTKNQVSLSCAVKGFYPSDIAVEWESNGQPENNYKTTPPVLDSDGSFFLVSRLTVDKSRWQEGNVFSCSVMHEALHNHYTQKSLSLSLGKGGGGSGGGGSEVQLLESGGGLVQPGGSLRLSCAASGFTFGNYDMAWVRQAPGKRPEWVSSIDTGGDITHYADSVKGRFTISRDNAKNTLYLQMNSLRPEDTAVYWCATDEEYALGPNEFDYYGQGTLVTVSS
notes: also called CIgG4A1A1(G4S)2
B3: CIgE4A1A1(GS3) (Fc fusion)
chain 1: GPPCPPCPAPEFLGGPSVFLFPPKPKDTLMISRTPEVTCVVVDVSQEDPEVQFNWYVDGVEVHNAKTKPREEQFNSTYRVVSVLTVLHQDWLNGKEYKCKVSNKGLPSSIEKTISKAKGQPREPQVYTLPPCQEEMTKNQVSLWCLVKGFYPSDIAVEWESNGQPENNYKTTPPVLDSDGSFFLYSRLTVDKSRWQEGNVFSCSVMHEALHNHYTQKSLSLSLGKGGGGSGGGGSGGGGSEVQLLESGGGLVQPGGSLRLSCAASGFTFGNYDMAWVRQAPGKRPEWVSSIDTGGDITHYADSVKGRFTISRDNAKNTLYLQMNSLRPEDTAVYWCATDEEYALGPNEFDYYGQGTLVTVSS
chain 2: GPPCPPCPAPEFLGGPSVFLFPPKPKDTLMISRTPEVTCVVVDVSQEDPEVQFNWYVDGVEVHNAKTKPREEQFNSTYRVVSVLTVLHQDWLNGKEYKCKVSNKGLPSSIEKTISKAKGQPREPQVCTLPPSQEEMTKNQVSLSCAVKGFYPSDIAVEWESNGQPENNYKTTPPVLDSDGSFFLVSRLTVDKSRWQEGNVFSCSVMHEALHNHYTQKSLSLSLGKGGGGSGGGGSGGGGSEVQLLESGGGLVQPGGSLRLSCAASGFTFGNYDMAWVRQAPGKRPEWVSSIDTGGDITHYADSVKGRFTISRDNAKNTLYLQMNSLRPEDTAVYWCATDEEYALGPNEFDYYGQGTLVTVSS
notes: also called CIgG4A1A1(G4S)3
B4: CIgG4A1A1(RS) (Fc fusion)
chain 1: GPPCPPCPAPEFLGGPSVFLFPPKPKDTLMISRTPEVTCVVVDVSQEDPEVQFNWYVDGVEVHNAKTKPREEQFNSTYRVVSVLTVLHQDWLNGKEYKCKVSNKGLPSSIEKTISKAKGQPREPQVYTLPPCQEEMTKNQVSLWCLVKGFYPSDIAVEWESNGQPENNYKTTPPVLDSDGSFFLYSRLTVDKSRWQEGNVFSCSVMHEALHNHYTQKSLSLSLGKRSEVQLLESGGGLVQPGGSLRLSCAASGFTFGNYDMAWVRQAPGKRPEWVSSIDTGGDITHYADSVKGRFTISRDNAKNTLYLQMNSLRPEDTAVYWCATDEEYALGPNEFDYYGQGTLVTVSS
chain 2: GPPCPPCPAPEFLGGPSVFLFPPKPKDTLMISRTPEVTCVVVDVSQEDPEVQFNWYVDGVEVHNAKTKPREEQFNSTYRVVSVLTVLHQDWLNGKEYKCKVSNKGLPSSIEKTISKAKGQPREPQVCTLPPSQEEMTKNQVSLSCAVKGFYPSDIAVEWESNGQPENNYKTTPPVLDSDGSFFLVSRLTVDKSRWQEGNVFSCSVMHEALHNHYTQKSLSLSLGKRSEVQLLESGGGLVQPGGSLRLSCAASGFTFGNYDMAWVRQAPGKRPEWVSSIDTGGDITHYADSVKGRFTISRDNAKNTLYLQMNSLRPEDTAVYWCATDEEYALGPNEFDYYGQGTLVTVSS
B5: NIgG4A1A1(G4S)3 (Fc fusion)
chain 1: EVQLLESGGGLVQPGGSLRLSCAASGFTFGNYDMAWVRQAPGKRPEWVSSIDTGGDITHYADSVKGRFTISRDNAKNTLYLQMNSLRPEDTAVYWCATDEEYALGPNEFDYYGQGTLVTVSSGGGGSGGGGSGGGGSGPPCPPCPAPEFLGGPSVFLFPPKPKDTLMISRTPEVTCVVVDVSQEDPEVQFNWYVDGVEVHNAKTKPREEQFNSTYRVVSVLTVLHQDWLNGKEYKCKVSNKGLPSSIEKTISKAKGQPREPQVYTLPPCQEEMTKNQVSLWCLVKGFYPSDIAVEWESNGQPENNYKTTPPVLDSDGSFFLYSRLTVDKSRWQEGNVFSCSVMHEALHNHYTQKSLSLSLGK
chain 2: EVQLLESGGGLVQPGGSLRLSCAASGFTFGNYDMAWVRQAPGKRPEWVSSIDTGGDITHYADSVKGRFTISRDNAKNTLYLQMNSLRPEDTAVYWCATDEEYALGPNEFDYYGQGTLVTVSSGGGGSGGGGSGGGGSGPPCPPCPAPEFLGGPSVFLFPPKPKDTLMISRTPEVTCVVVDVSQEDPEVQFNWYVDGVEVHNAKTKPREEQFNSTYRVVSVLTVLHQDWLNGKEYKCKVSNKGLPSSIEKTISKAKGQPREPQVCTLPPSQEEMTKNQVSLSCAVKGFYPSDIAVEWESNGQPENNYKTTPPVLDSDGSFFLVSRLTVDKSRWQEGNVFSCSVMHEALHNHYTQKSLSLSLGK
B6: CIgE4A1A1(GS)1 (Fc fusion)
chain 1: GPPCPPCPAPEFLGGPSVFLFPPKPKDTLMISRTPEVTCVVVDVSQEDPEVQFNWYVDGVEVHNAKTKPREEQFNSTYRVVSVLTVLHQDWLNGKEYKCKVSNKGLPSSIEKTISKAKGQPREPQVYTLPPCQEEMTKNQVSLWCLVKGFYPSDIAVEWESNGQPENNYKTTPPVLDSDGSFFLYSRLTVDKSRWQEGNVFSCSVMHEALHNHYTQKSLSLSLGKGGGGSEVQLLESGGGLVQPGGSLRLSCAASGFTFGNYDMAWVRQAPGKRPEWVSSIDTGGDITHYADSVKGRFTISRDNAKNTLYLQMNSLRPEDTAVYWCATDEEYALGPNEFDYYGQGTLVTVSS
chain 2: GPPCPPCPAPEFLGGPSVFLFPPKPKDTLMISRTPEVTCVVVDVSQEDPEVQFNWYVDGVEVHNAKTKPREEQFNSTYRVVSVLTVLHQDWLNGKEYKCKVSNKGLPSSIEKTISKAKGQPREPQVCTLPPSQEEMTKNQVSLSCAVKGFYPSDIAVEWESNGQPENNYKTTPPVLDSDGSFFLVSRLTVDKSRWQEGNVFSCSVMHEALHNHYTQKSLSLSLGKGGGGSEVQLLESGGGLVQPGGSLRLSCAASGFTFGNYDMAWVRQAPGKRPEWVSSIDTGGDITHYADSVKGRFTISRDNAKNTLYLQMNSLRPEDTAVYWCATDEEYALGPNEFDYYGQGTLVTVSS
notes: label printed with IgE4/(GS); also called CIgG4A1A1(G4S)1
B7: NIgG4B1A2(G4S)1 (Fc fusion)
chain 1: QVQLQESGGGLVQTGGSLRLSCAVHGRTFSNTGMGWFRQAPGNERQFVAIISPSGTSTYYADSVKGRFTISRDPAKNTVYLQMNSLKMDDTAVYYCAASYGSNWSTLRHQRRNEYDAWGQGTQVAVSGGGGSGPPCPPCPAPEFLGGPSVFLFPPKPKDTLMISRTPEVTCVVVDVSQEDPEVQFNWYVDGVEVHNAKTKPREEQFNSTYRVVSVLTVLHQDWLNGKEYKCKVSNKGLPSSIEKTISKAKGQPREPQVYTLPPCQEEMTKNQVSLWCLVKGFYPSDIAVEWESNGQPENNYKTTPPVLDSDGSFFLYSRLTVDKSRWQEGNVFSCSVMHEALHNHYTQKSLSLSLGK
chain 2: EVQLLESGGGLVQPGGSLRLSCAASGFRFGNYDMAWVRQAPGKRYEWVSSIDTGGDITHYADSVKGRFTISRDNAKNTLYLQMNSLRPEDTAEYWCATDEEYALGPNEFDYYGQGTLVTVSGGGGSGPPCPPCPAPEFLGGPSVFLFPPKPKDTLMISRTPEVTCVVVDVSQEDPEVQFNWYVDGVEVHNAKTKPREEQFNSTYRVVSVLTVLHQDWLNGKEYKCKVSNKGLPSSIEKTISKAKGQPREPQVCTLPPSQEEMTKNQVSLSCAVKGFYPSDIAVEWESNGQPENNYKTTPPVLDSDGSFFLVSRLTVDKSRWQEGNVFSCSVMHEALHNHYTQKSLSLSLGK

The target in this test is T1, recombinant human IgE (human, UniProt P01854-1 1-428).
T1 construct: made in-house (ALK); preloaded on immobilised FcεRIα in the displacement ELISA
T1 sequence (P01854 other isoform, or with tags, fused parts or gaps): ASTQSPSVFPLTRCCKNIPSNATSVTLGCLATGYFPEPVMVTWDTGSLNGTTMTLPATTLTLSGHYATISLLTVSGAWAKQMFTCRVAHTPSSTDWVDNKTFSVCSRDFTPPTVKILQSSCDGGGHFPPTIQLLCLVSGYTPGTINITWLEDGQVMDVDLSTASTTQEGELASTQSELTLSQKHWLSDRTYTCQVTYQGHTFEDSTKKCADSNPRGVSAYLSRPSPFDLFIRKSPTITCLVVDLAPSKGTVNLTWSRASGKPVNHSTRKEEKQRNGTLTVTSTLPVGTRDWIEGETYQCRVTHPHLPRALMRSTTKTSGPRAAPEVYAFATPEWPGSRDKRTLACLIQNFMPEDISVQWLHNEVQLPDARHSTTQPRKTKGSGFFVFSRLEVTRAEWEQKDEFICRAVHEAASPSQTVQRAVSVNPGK
The test is described as follows: IgE-FcεRIα displacement ELISA. Here is the method:
The displacement effect was tested using IgE-FcεRIα displacement ELISA assay. Maxisorp® microtiter plates (Thermo Scientific Nunc, Roskilde, Denmark) were coated with 100 μl streptavidin, 5 μg/ml (Thermo Scientific, Waltham, MA) for 18 h at 4° C. followed by wash with 300 μl washing buffer (PBS containing 0.05% Tween 20) using an AquaMax® 2000 plate washer (Molecular Devices, San Jose, CA). Remaining binding sites were blocked with 250 μl blocking buffer (PBS containing 2% BSA) for 2 h and washed with 300 μl washing buffer. Subsequently, the bound streptavidin was loaded with 100 μl (0.1 μg/ml) recombinant human FcεRIα (site specific biotinylated via avi-tag, made in-house, ALK, Hørsholm, Denmark) for 1 h and plates washed twice with 300 μl washing buffer. The bound receptor was then loaded with 100 μl recombinant human IgE (made in-house, ALK, Hørsholm, Denmark), 13 ng/ml (pre-titrated to reach an OD₄₅₀ signal in the range of 1.5-2.5 in the absence of displacement components) for 1h followed by three washes of 300 μl washing buffer.
displacement step: 100 μl sdAbs diluted in concentration series (pM-μM range) or blocking buffer only as a non-displacement negative control, were added to the ELISA wells and incubated for 1 h. Any IgE, displaced from the receptor by a sdAb was washed away by three washes of 300 μl washing buffer.
The ability of the various sdAbs to displace IgE from the receptor (FcεRIα) was evaluated by use of the ELISA based IgE-FcεRIα displacement assay. The percent displacement effect was calculated as the relative reduction in signal compared to the control with no sdAb added. The EC₅₀ values and the maximal effects were determined (table 15).
B1: the Max effect was over 95%.

For the molecule B2, the half-maximal effective concentration (EC50) is 145 nM and the Max effect is about 70%.

B3: the EC50 came out at 36 nM and the Max effect was about 85%.

Consider B4, for which the Max effect is under 20%.

In the case of B5, the EC50 was found to be 310 nM.

As to B6, the Max effect was about 40%.

With B7, the Max effect is over 95%.

A word on the EC50: it is the midpoint of the concentration-response curve.
